In publication PMC10349104:
“And” between values parts separate entries of the source, which are not always exact repeats. Equal entries are not always repeated.

Assays:
Experiment in all cases: SPR
[1] = target: EVA-A(DC) (Amblyomma americanum)
[2] = target: EVA-A(Y44A) (Amblyomma americanum)
[3] = target: EVA-A(21-102) (A. americanum)
[4] = target: EVA-A(Y44A) (A. americanum)
[5] = target: EVA-A(DN) (Amblyomma americanum)
[6] = target: EVA-A(L39P) (Amblyomma americanum)
[7] = target: EVA-A(1-98) (A. americanum)
[8] = target: EVA-A(C8) (Amblyomma americanum)
[9] = target: EVA-A(L39P) (A. americanum)
[10] = target: EVA-A(C8) (A. americanum)

CCL5, sequence (P13501 24-91): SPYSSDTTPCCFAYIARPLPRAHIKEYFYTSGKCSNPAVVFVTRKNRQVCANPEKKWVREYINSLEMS
CCL21, sequence (O00585 24-134): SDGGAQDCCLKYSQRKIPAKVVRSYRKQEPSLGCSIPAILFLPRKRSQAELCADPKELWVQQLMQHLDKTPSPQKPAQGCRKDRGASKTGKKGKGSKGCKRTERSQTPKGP
CCL3, sequence (P10147 24-92): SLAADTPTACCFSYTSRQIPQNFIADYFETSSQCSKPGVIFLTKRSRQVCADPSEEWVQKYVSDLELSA
CCL14, sequence (Q16627 20-93): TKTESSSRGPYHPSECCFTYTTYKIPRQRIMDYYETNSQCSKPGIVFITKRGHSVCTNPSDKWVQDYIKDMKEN
CCL1, sequence (P22362 24-96): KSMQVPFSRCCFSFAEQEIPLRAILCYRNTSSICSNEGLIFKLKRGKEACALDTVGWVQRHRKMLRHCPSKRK
CCL22, sequence (O00626 25-93): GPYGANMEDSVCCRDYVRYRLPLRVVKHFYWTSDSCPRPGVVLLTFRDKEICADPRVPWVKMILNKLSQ
CCL24, sequence (O00175 27-119): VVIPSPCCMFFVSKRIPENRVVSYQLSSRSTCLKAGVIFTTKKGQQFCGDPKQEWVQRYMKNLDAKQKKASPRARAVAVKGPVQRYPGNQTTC
CCL18, sequence (P55774 21-89): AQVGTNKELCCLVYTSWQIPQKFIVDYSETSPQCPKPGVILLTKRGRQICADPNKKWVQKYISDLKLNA
CCL11, sequence (P51671 24-97): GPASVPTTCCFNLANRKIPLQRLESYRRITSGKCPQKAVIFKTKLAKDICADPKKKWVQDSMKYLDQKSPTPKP
CCL7, sequence (P80098 24-99): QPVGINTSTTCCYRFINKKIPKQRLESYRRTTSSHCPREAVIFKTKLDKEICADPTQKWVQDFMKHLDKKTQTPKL

Substance | Kd [1] | kon [1] | Kd [2] | koff [2] | kon [2] | Kd [3] | koff [3] | kon [3] | Kd [4] | koff [4] | kon [4] | Kd [5] | Kd [6] | kon [6] | Kd [7] | koff [7] | kon [7] | Kd [9] | koff [9] | kon [9] | other results
CCL5 (from UniProt P13501 24-91) (ligand) | 0.973 nM and 1.11 nM and 1 nM | 340000 M⁻¹ s⁻¹ and 372000 M⁻¹ s⁻¹ and 348000 M⁻¹ s⁻¹ | 0.145 nM and 0.294 nM and 0.251 nM | 0.000189 s⁻¹ and 0.000193 s⁻¹ and 0.000245 s⁻¹ | 1.31e+06 M⁻¹ s⁻¹ and 658000 M⁻¹ s⁻¹ and 976000 M⁻¹ s⁻¹ | 2.52 nM | 0.00195 s⁻¹ | 777000 M⁻¹ s⁻¹ | 0.23 nM | 0.00021 s⁻¹ | 981000 M⁻¹ s⁻¹ | 2.42 nM (2×) and 2.72 nM | 0.0849 nM and 0.0557 nM and 0.0372 nM | 1.12e+06 M⁻¹ s⁻¹ and 1.98e+06 M⁻¹ s⁻¹ and 1.48e+06 M⁻¹ s⁻¹ | 1.03 nM | 0.00033 s⁻¹ | 354000 M⁻¹ s⁻¹ | < 0.1 nM | < 0.0001 s⁻¹ | 1.53e+06 M⁻¹ s⁻¹ | koff [1]: 0.000331 s⁻¹ and 0.000413 s⁻¹ and 0.00035 s⁻¹; koff [5]: 0.00208 s⁻¹ and 0.00189 s⁻¹ and 0.00187 s⁻¹; kon [5]: 860000 M⁻¹ s⁻¹ and 783000 M⁻¹ s⁻¹ and 688000 M⁻¹ s⁻¹; koff [6]: 9.49e-05 s⁻¹ and 0.000111 s⁻¹ and 5.52e-05 s⁻¹; Kd [8]: 15.9 nM and 16.3 nM and 16 nM; koff [8]: 0.0113 s⁻¹ and 0.012 s⁻¹ and 0.0111 s⁻¹; kon [8]: 712000 M⁻¹ s⁻¹ and 738000 M⁻¹ s⁻¹ and 697000 M⁻¹ s⁻¹; Kd [10]: 16 nM; koff [10]: 0.0115 s⁻¹; kon [10]: 716000 M⁻¹ s⁻¹
CCL21 (from UniProt O00585 24-134) (ligand) | 30.1 nM and 12.1 nM and 11.4 nM | 77500 M⁻¹ s⁻¹ and 144000 M⁻¹ s⁻¹ and 154000 M⁻¹ s⁻¹ | 135 nM and 40.8 nM and 180 nM | 0.00431 s⁻¹ and 0.00219 s⁻¹ and 0.00417 s⁻¹ | 32000 M⁻¹ s⁻¹ and 53800 M⁻¹ s⁻¹ and 23100 M⁻¹ s⁻¹ | 47.5 nM | 0.0106 s⁻¹ | 224000 M⁻¹ s⁻¹ | 119 nM | 0.00356 s⁻¹ | 36000 M⁻¹ s⁻¹ | 51.1 nM and 51.4 nM and 40 nM | 24.3 nM and 19.8 nM and 29.4 nM | 136000 M⁻¹ s⁻¹ and 225000 M⁻¹ s⁻¹ and 230000 M⁻¹ s⁻¹ | 17.8 nM | 0.00233 s⁻¹ | 126000 M⁻¹ s⁻¹ | 24.5 nM | 0.00484 s⁻¹ | 197000 M⁻¹ s⁻¹ | koff [1]: 0.00233 s⁻¹ and 0.00174 s⁻¹ and 0.00177 s⁻¹; koff [5]: 0.0125 s⁻¹ and 0.0092 s⁻¹ and 0.00995 s⁻¹; kon [5]: 245000 M⁻¹ s⁻¹ and 179000 M⁻¹ s⁻¹ and 248000 M⁻¹ s⁻¹; koff [6]: 0.00331 s⁻¹ and 0.00445 s⁻¹ and 0.00676 s⁻¹
CCL1 (from UniProt P22362 24-96) (ligand) | 327 nM and 241 nM and 650 nM |  | 30.2 nM and 67.9 nM and 51.6 nM | 0.00285 s⁻¹ and 0.00348 s⁻¹ and 0.00135 s⁻¹ |  | 457 nM | 0.18 s⁻¹ | 268000 M⁻¹ s⁻¹ | 49.9 nM | 0.00256 s⁻¹ | 57000 M⁻¹ s⁻¹ | 686 nM and 369 nM and 318 nM | 44.7 nM and 48.2 nM and 79.6 nM | 19300 M⁻¹ s⁻¹ and 13100 M⁻¹ s⁻¹ and 19200 M⁻¹ s⁻¹ | 406 nM | 0.00168 s⁻¹ | 6000 M⁻¹ s⁻¹ | 57.5 nM | 0.00167 s⁻¹ | 17000 M⁻¹ s⁻¹ | koff [1]: 0.00168 s⁻¹ and 0.00255 s⁻¹ and 0.00199 s⁻¹; koff [6]: 0.000863 s⁻¹ and 0.00063 s⁻¹ and 0.00153 s⁻¹
CCL3 (from UniProt P10147 24-92) (ligand) | 1.67 nM and 1.95 nM and 1.68 nM | 345000 M⁻¹ s⁻¹ and 326000 M⁻¹ s⁻¹ and 363000 M⁻¹ s⁻¹ | 1.2 nM and 0.464 nM | 0.000428 s⁻¹ and 0.000445 s⁻¹ and 0.000452 s⁻¹ | 357000 M⁻¹ s⁻¹ and 369000 M⁻¹ s⁻¹ and 973000 M⁻¹ s⁻¹ | 3.23 nM | 0.00144 s⁻¹ | 449000 M⁻¹ s⁻¹ | 0.95 nM | 0.00044 s⁻¹ | 566000 M⁻¹ s⁻¹ | 2.89 nM and 3.24 nM and 3.57 nM | 0.356 nM and 0.205 nM and 0.394 nM | 831000 M⁻¹ s⁻¹ and 1.78e+06 M⁻¹ s⁻¹ and 1.05e+06 M⁻¹ s⁻¹ | 1.77 nM | 0.00058 s⁻¹ | 345000 M⁻¹ s⁻¹ | 0.32 nM | 0.0004 s⁻¹ | 1.22e+06 M⁻¹ s⁻¹ | koff [1]: 0.000578 s⁻¹ and 0.000636 s⁻¹ and 0.00061 s⁻¹; koff [5]: 0.00144 s⁻¹ and 0.00146 s⁻¹ and 0.00142 s⁻¹; kon [5]: 498000 M⁻¹ s⁻¹ and 452000 M⁻¹ s⁻¹ and 397000 M⁻¹ s⁻¹; koff [6]: 0.000296 s⁻¹ and 0.000365 s⁻¹ and 0.000413 s⁻¹; Kd [8]: 36.6 nM and 43.3 nM and 41.1 nM; Kd [10]: 40.3 nM; koff [10]: 0.0464 s⁻¹; kon [10]: 1.08e+06 M⁻¹ s⁻¹
CCL24 (from UniProt O00175 27-119) (ligand) | 23.6 nM and 30.9 nM and 29.7 nM | 47000 M⁻¹ s⁻¹ and 28600 M⁻¹ s⁻¹ and 32100 M⁻¹ s⁻¹ | 46.6 nM and 88.7 nM and 70.7 nM | 0.00131 s⁻¹ and 0.0022 s⁻¹ and 0.00184 s⁻¹ | 28200 M⁻¹ s⁻¹ and 24800 M⁻¹ s⁻¹ and 26000 M⁻¹ s⁻¹ | 19.9 nM | 0.00091 s⁻¹ | 46000 M⁻¹ s⁻¹ | 68.6 nM | 0.00179 s⁻¹ | 26000 M⁻¹ s⁻¹ | 19.3 nM and 20.8 nM and 19.7 nM | 9.33 nM and 9.02 nM and 10.4 nM | 91800 M⁻¹ s⁻¹ and 144000 M⁻¹ s⁻¹ and 96500 M⁻¹ s⁻¹ | 28.1 nM | 0.00111 s⁻¹ | 36000 M⁻¹ s⁻¹ | 9.58 nM | 0.00121 s⁻¹ | 111000 M⁻¹ s⁻¹ | koff [1]: 0.00111 s⁻¹ and 0.000885 s⁻¹ and 0.000951 s⁻¹; koff [5]: 0.000922 s⁻¹ and 0.00125 s⁻¹ and 0.000564 s⁻¹; kon [5]: 47700 M⁻¹ s⁻¹ and 60300 M⁻¹ s⁻¹ and 28700 M⁻¹ s⁻¹; koff [6]: 0.000856 s⁻¹ and 0.0013 s⁻¹ and 0.00101 s⁻¹; Kd [8]: 697 nM and 394 nM and 252 nM; kon [8]: 23800 M⁻¹ s⁻¹ and 14800 M⁻¹ s⁻¹ and 14400 M⁻¹ s⁻¹; Kd [10]: 447 nM; koff [10]: 0.00869 s⁻¹; kon [10]: 18000 M⁻¹ s⁻¹
CCL18 (from UniProt P55774 21-89) (ligand) | 0.00073 nM and 0.00413 nM and 0.00277 nM | 496000 M⁻¹ s⁻¹ and 427000 M⁻¹ s⁻¹ and 406000 M⁻¹ s⁻¹ | 0.0553 nM and 0.0303 nM and 0.0163 nM | 7.08e-05 s⁻¹ and 5.3e-05 s⁻¹ and 3.33e-05 s⁻¹ | 1.28e+06 M⁻¹ s⁻¹ and 1.75e+06 M⁻¹ s⁻¹ and 2.05e+06 M⁻¹ s⁻¹ | < 0.1 nM | < 0.0001 s⁻¹ | 1.59e+06 M⁻¹ s⁻¹ | < 0.1 nM | < 0.0001 s⁻¹ | 1.69e+06 M⁻¹ s⁻¹ | 0.000563 nM and 0.000228 nM and 0.000552 nM | 0.00439 nM and 0.00871 nM and 0.0273 nM | 3.31e+06 M⁻¹ s⁻¹ and 3.54e+06 M⁻¹ s⁻¹ and 4.37e+06 M⁻¹ s⁻¹ | < 0.1 nM | < 0.0001 s⁻¹ | 443000 M⁻¹ s⁻¹ | < 0.1 nM | < 0.0001 s⁻¹ | 3.74e+06 M⁻¹ s⁻¹ | koff [5]: 1.04e-06 s⁻¹ and 4.52e-07 s⁻¹ and 5.08e-07 s⁻¹; kon [5]: 1.86e+06 M⁻¹ s⁻¹ and 1.98e+06 M⁻¹ s⁻¹ and 921000 M⁻¹ s⁻¹; Kd [8]: 0.0591 nM and 0.0302 nM and 0.0473 nM; koff [8]: 5.57e-05 s⁻¹ and 2.29e-05 s⁻¹ and 3.83e-05 s⁻¹; kon [8]: 943000 M⁻¹ s⁻¹ and 758000 M⁻¹ s⁻¹ and 810000 M⁻¹ s⁻¹; Kd [10]: < 0.1 nM; koff [10]: < 0.0001 s⁻¹; kon [10]: 837000 M⁻¹ s⁻¹
CCL7 (from UniProt P80098 24-99) (ligand) |  |  | 4.63 nM and 5.4 nM and 4.4 nM |  |  |  |  |  |  |  |  |  |  |  | 1010 nM |  |  |  |  |  | Kd [10]: 765 nM
CCL11 (from UniProt P51671 24-97) (ligand) | 481 nM and 474 nM and 507 nM | 112000 M⁻¹ s⁻¹ and 72900 M⁻¹ s⁻¹ and 119000 M⁻¹ s⁻¹ | 1.67 nM and 1.9 nM and 1.61 nM | 0.00144 s⁻¹ and 0.00137 s⁻¹ and 0.00169 s⁻¹ | 862000 M⁻¹ s⁻¹ and 719000 M⁻¹ s⁻¹ and 1.05e+06 M⁻¹ s⁻¹ | 507 nM | 0.218 s⁻¹ | 454000 M⁻¹ s⁻¹ | 1.73 nM | 0.0015 s⁻¹ | 877000 M⁻¹ s⁻¹ | 750 nM and 383 nM and 390 nM | 3.46 nM and 2.95 nM and 3.55 nM | 1.2e+06 1/(M s) and 1.5e+06 1/(M s) (2×) | 487 nM | 0.0537 s⁻¹ | 101000 M⁻¹ s⁻¹ | 3.32 nM | 0.00372 s⁻¹ | 1.4e+06 M⁻¹ s⁻¹ | koff [1]: 0.0537 s⁻¹ and 0.0345 s⁻¹ and 0.0604 s⁻¹; koff [5]: 0.264 s⁻¹ and 0.203 s⁻¹ and 0.187 s⁻¹; kon [5]: 352000 M⁻¹ s⁻¹ and 531000 M⁻¹ s⁻¹ and 480000 M⁻¹ s⁻¹; koff [6]: 0.00417 s⁻¹ and 0.00433 s⁻¹ and 0.00541 s⁻¹; Kd [8]: 842 nM and 836 nM and 312 nM; Kd [10]: 663 nM; koff [10]: 0.196 s⁻¹; kon [10]: 236000 M⁻¹ s⁻¹
CCL22 (from UniProt O00626 25-93) (ligand) | 125 nM | 37600 M⁻¹ s⁻¹ and 12800 M⁻¹ s⁻¹ | 6.2 nM and 14.4 nM and 13.1 nM | 0.0056 s⁻¹ and 0.00713 s⁻¹ and 0.0118 s⁻¹ | 903000 M⁻¹ s⁻¹ and 496000 M⁻¹ s⁻¹ and 899000 M⁻¹ s⁻¹ | 61.6 nM | 0.00161 s⁻¹ | 26000 M⁻¹ s⁻¹ | 11.2 nM | 0.00818 s⁻¹ | 766000 M⁻¹ s⁻¹ | 64.9 nM and 73.9 nM and 46 nM | 1.64 nM and 1.17 nM and 1.57 nM | 763000 M⁻¹ s⁻¹ and 1.28e+06 M⁻¹ s⁻¹ and 1.05e+06 M⁻¹ s⁻¹ | 125 nM | 0.00084 s⁻¹ | 29000 M⁻¹ s⁻¹ | 1.46 nM | 0.00292 s⁻¹ | 1.03e+06 M⁻¹ s⁻¹ | koff [5]: 0.00186 s⁻¹ and 0.00173 s⁻¹ and 0.00125 s⁻¹; kon [5]: 28700 M⁻¹ s⁻¹ and 23400 M⁻¹ s⁻¹ and 27200 M⁻¹ s⁻¹; koff [6]: 0.00125 s⁻¹ and 0.00151 s⁻¹ and 0.00165 s⁻¹
CCL14 (from UniProt Q16627 20-93) (ligand) |  |  |  |  |  | 0.11 nM | 8e-05 s⁻¹ | 703000 M⁻¹ s⁻¹ | 0.11 nM | 5e-05 s⁻¹ | 481000 M⁻¹ s⁻¹ |  |  |  | < 0.1 nM | < 0.0001 s⁻¹ | 239000 M⁻¹ s⁻¹ | 0.04 nM | 0.00013 s⁻¹ | 2.41e+06 M⁻¹ s⁻¹ | Kd [10]: 1.3 nM; koff [10]: 0.00048 s⁻¹; kon [10]: 386000 M⁻¹ s⁻¹
